In the assay the target is T1, Fas (mouse (endogenous in WEHI-231)) (UniProt P25446).
T1 sequence: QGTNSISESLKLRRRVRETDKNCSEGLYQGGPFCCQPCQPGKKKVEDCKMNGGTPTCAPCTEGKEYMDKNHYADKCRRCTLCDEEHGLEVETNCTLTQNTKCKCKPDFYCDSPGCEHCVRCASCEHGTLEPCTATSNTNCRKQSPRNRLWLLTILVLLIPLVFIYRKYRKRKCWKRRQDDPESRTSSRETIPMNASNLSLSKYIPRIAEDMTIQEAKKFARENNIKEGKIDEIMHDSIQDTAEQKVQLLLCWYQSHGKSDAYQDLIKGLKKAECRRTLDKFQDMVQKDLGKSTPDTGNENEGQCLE

“FasL (from UniProt P41047 1-279) (ligand)” came in with a survival of p21–35-loaded WEHI-231 cells co-cultured with the cytolytic CD4+ T cell clone R3TB7, restored by increasing concentrations of an anti-FasL antibody (Annexin V / 7-AAD) (% of WEHI-231 cell survival) of 80.

The values are drawn from PMC3467281.
